Source: patent US11673947B2, “Target tissue-specific antigen-binding molecule” (Chugai Seiyaku Kabushiki Kaisha, priority 2012, dated 2023)
Numbering of substitutions follows the chain as printed. Blank lines part the entries; values can stand above or below the molecule they belong to.

Columns and labels:
hIL-6R [1] = target: T1, hIL-6R (Homo sapiens, UniProt P08887); assay: Phage ELISA, binding to hIL-6R in the presence or absence of SC; conditions: in the presence of SC
T1 sequence (P08887 20-355 limits assumed): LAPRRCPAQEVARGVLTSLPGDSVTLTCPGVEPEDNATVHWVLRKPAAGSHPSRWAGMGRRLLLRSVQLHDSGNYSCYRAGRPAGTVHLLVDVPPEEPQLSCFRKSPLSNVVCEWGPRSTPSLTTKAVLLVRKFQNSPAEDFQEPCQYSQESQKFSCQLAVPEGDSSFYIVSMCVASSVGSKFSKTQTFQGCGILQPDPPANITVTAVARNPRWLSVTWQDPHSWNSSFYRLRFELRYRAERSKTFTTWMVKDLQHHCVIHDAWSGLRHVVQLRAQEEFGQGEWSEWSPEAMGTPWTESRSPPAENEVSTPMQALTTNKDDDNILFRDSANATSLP
Experimental: Culture supernatants containing phages were collected according to a conventional method (Methods Mol. Biol. (2002) 178, 133-145) from single colonies of E. coli obtained as described in (14-2). Phages purified by the method described in (2-4) were subjected to ELISA by the following procedure. A StreptaWell 96 microtiter plate (Roche) was coated overnight with 100 μl of TBS containing biotin-labeled hIL-6R. After biotin-labeled hIL-6R was removed by washing each well of the plate with TBST, the wells were blocked with 250 μl of 2% skim milk/TBS for one hour or more. 2% skim milk/TBS was removed, and then the prepared, purified phages were added to each well. The plate was allowed to stand at room temperature for one hour to allow binding of antibody-displaying phages to biotin-labeled hIL-6R in each well in the presence or absence of SC. After washing with TBST or SC/TBST, an HRP-conjugated anti-M13 antibody (Amersham Pharmacia Biotech) diluted with TBS or SC/TBS was added to each well. The plate was incubated for one hour. Following wash with TBST or SC/TBST, the TMB single solution (ZYMED) was added to each well. The chromogenic reaction in the solution of each well was terminated by adding sulfuric acid. Then, the developed color was assessed by measuring absorbance at 450 nm.

hIL-6R [2] = target: T1, hIL-6R; assay: IgG ELISA, binding to hIL-6R in the presence or absence of each small molecule, amino acid or amino acid metabolite
Experimental: Three types of antibodies obtained: 6RNMSC1-2_F02 and 6RNMSC1-3_G02, and GC413 were subjected to ELISA under the nine conditions described in Table 3. Meanwhile, each small molecule was appropriately prepared at the concentrations shown in Table 3 using the buffers indicated in Table 19. The antigen used was biotin-labeled hIL-6R.
First, a StreptaWell 96 microtiter plate (Roche) was coated at room temperature for one hour or more with 100 μl of PBS containing biotin-labeled hIL-6R. After washing with Wash buffer to remove unbound biotin-labeled hIL-6R from the plate, each well was blocked for one hour or more with 250 μl of Blocking Buffer. After Blocking Buffer was removed from each well, the purified IgGs were prepared to 2.5 μg/ml in Sample Buffer containing small molecules at the final concentrations shown in Table 3, and each was aliquoted at 100 μl into the plate. The plate was allowed to stand at room temperature for one hour to allow binding of each IgG to biotin-labeled hIL-6R in each well. After washing with Wash Buffer containing small molecules at the final concentrations shown in Table 3, an HRP-conjugated anti-human IgG antibody (BIOSOURCE) diluted with Sample Buffer containing the same small molecules was added to each well. The plate was incubated for one hour. Following wash with Wash Buffer containing each small molecule, the TMB single solution (ZYMED) was added to each well. The chromogenic reaction in the solution of each well was terminated by adding sulfuric acid. Then, the developed color was assessed by measuring absorbance at 450 nm.
6RNMSC1-2_F02 described in Example 14, which has antigen-binding activity in the presence of kynurenine, and negative control GC413 were subjected to ELISA under the seven conditions described in Table 18. Meanwhile, each small molecule was appropriately prepared at the concentrations shown in Table 18 using the buffers indicated in Table 4. The antigen used was biotin-labeled hIL-6R. ELISA was carried out using the method described in Example 11.

human IL6 receptor = target: T2, human IL6 receptor (Homo sapiens, UniProt P08887); assay: Phage ELISA, binding to human IL6 receptor in the presence or absence of adenosine and/or ATP; conditions: with or without 10 mM adenosine and ATP
T2 sequence (P08887 20-357 limits assumed): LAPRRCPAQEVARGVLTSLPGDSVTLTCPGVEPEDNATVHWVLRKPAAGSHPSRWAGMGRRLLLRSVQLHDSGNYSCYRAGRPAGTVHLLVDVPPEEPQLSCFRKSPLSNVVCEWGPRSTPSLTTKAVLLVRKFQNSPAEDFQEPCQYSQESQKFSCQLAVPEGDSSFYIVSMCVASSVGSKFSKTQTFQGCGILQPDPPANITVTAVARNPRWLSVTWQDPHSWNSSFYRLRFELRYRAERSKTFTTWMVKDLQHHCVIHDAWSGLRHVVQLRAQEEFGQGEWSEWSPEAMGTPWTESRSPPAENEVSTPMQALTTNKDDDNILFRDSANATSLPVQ
Experimental: Phage-containing culture supernatants were collected according to a conventional method (Methods Mol. Biol. (2002) 178, 133-145) from single colonies of E. coli obtained by the method described above. The collected culture supernatants were treated by ultrafiltration using NucleoFast 96 (MACHERY-NAGEL). 100 μl of the culture supernatants were added to each well of NucleoFast 96, and it was centrifuged (4500 g for 45 minutes) to remove flow through. After addition of 100 μl of H2O, the NucleoFast 96 was washed by centrifugation (4500 g for 30 minutes). Finally, 100 μl of TBS was added, and the NucleoFast 96 was allowed to stand for five minutes at room temperature. A phage suspension was collected from the supernatant in each well of the NucleoFast 96.
The purified phages, to which TBS or (adenosine+ATP)/TBS was added, were subjected to ELISA by the following procedure. A StreptaWell 96 microtiter plate (Roche) was coated overnight with 100 μl of TBS containing biotin-labeled antigen. […] Then, the developed color was assessed by measuring absorbance at 450 nm. […]
First, a StreptaWell 96 microtiter plate (Roche) was coated at room temperature for one hour or more with 100 μl of TBS containing a biotin-labeled antigen. […] Then, the developed color was assessed by measuring absorbance at 450 nm (FIGS. 25, 26, and 27). […]

[3] = Competitive phage ELISA, inhibition of binding to biotin-labeled antigens by ATP; conditions: ATP from an equal amount up to 10000 times that of the antigen
Experimental: ATNLSA1-4_D12 and PF1 were each diluted with TBS and subjected to ELISA by the following procedure.
A StreptaWell 96 microtiter plate (Roche) was coated at room temperature for one hour with 100 μl of TBS containing biotin-labeled antigens (a mixture of 5′-adenosine-PEG-biotin and ATP-PEG-biotin). After the antigens were removed by washing each well of the plate with TBST, the wells were blocked with 250 μl of 2% skim milk/TBS for one hour or more. 2% skim milk/TBS was removed, and then the prepared, purified phages were added to each well. The plate was allowed to stand at room temperature for one hour to allow binding of the antibody-displaying phages to the antigens in each well. […] For the competition of the immobilized antigen with ATP, the plate was allowed to stand at room temperature for one hour. Then, after TBST wash, an HRP-conjugated anti-M13 antibody (Amersham Pharmacia Biotech) diluted with TBS was added to each well. The plate was incubated for one hour. Following TBST wash, the TMB single solution (ZYMED) was added to each well. The chromogenic reaction in the solution of each well was terminated by adding sulfuric acid. Then, the developed color was assessed by measuring absorbance at 450 nm.

binding activity to hIL-6R in the presence of a small molecule cocktail (phage ELISA) (hIL-6R [1]): have binding activity
absorbance under condition 1 compared to condition 8 (hIL-6R [2]; condition 1 (1 mM ATP-Na)): the same
absorbance under condition 9 as compared to condition 8 (hIL-6R [2]; condition 9 (in the absence of small molecules) vs condition 8 (complete small molecule cocktail solution)): markedly lower
absorbance under other conditions (hIL-6R [2]; remaining conditions of Table 3): markedly lower
B1: 6RNMSC1-3_G02: antibody that binds to hIL-6R in the presence of ATP; SEQ ID NOs: 88 and 89 (antibody, listed as Homo sapiens, V domains shown)
VH: EVQLVQSGGDLVKPGGSLRLSCAASGFTFSNYAMHWVRQAPGKGLEWVAVVSYDGSNKYYADSVKGRFTISRDNSKNTLYLQMNSLRAEDTAVYYCARLVPSSGYPGRFDPWGQGTLVTVSS
VL: NIQMTQSPSSLSASVGDRVTITCRASQSISSSLNWYQQIPGKAPKLLIYAASSLQSGVPSRFSGSGSGTDFTLTISSLQPEDFASYYCQQSYSAWTFGQGTKVEIK

antigen-binding activity to human IL-6 receptor in the absence of ATP and adenosine (human IL6 receptor): had an antigen-binding activity
B2: 6RRLSA1-6_037: clone with antigen-binding activity to human IL-6 receptor in the absence of ATP and adenosine (antibody, V domains shown)
VH: EVQLVESGGDLVKPGGGLRLSCAASGFTFSTYTMHWVRQAPGKGLEWVSSISSRSGHRHYADSVKGRFTISRDNAKNSLYLQMNSLRAEDTAVYYCARYGKKGNRNWVFDYWGQGTLVTVSS
VL: QSALTQPPSASGSPGQTVTISCTGTSTDVGGYNYVSWYQQHPGKAPKLMIYSTSKRPSGVPDRFSGSKSGNTASLTVSGLQAEDEADYFCSTTTYAKNPVFGGGTKLTVL

antigen-binding activity to human IL-6 receptor in the absence of ATP and adenosine (human IL6 receptor): had an antigen-binding activity
B3: 6RRLSA1-6_045: clone with antigen-binding activity to human IL-6 receptor in the absence of ATP and adenosine (antibody, V domains shown)
VH: B2 VH with T31G, G56N, H59S, Y99F, K102R, G103F, N104D
VL: B2 VL with G31T, S52K, T92S, T93R, T94R, A96R, K97R, N98S, P99L, V100S

B4: PF1: IL-6R-binding clone prepared as a negative control; SEQ ID NOs: 48 and 49 (antibody, V domains shown)
VH: QVQLQESGPGLVKPSETLSLTCAVSGYSISDDHAWSWVRQPPGEGLEWIGYISYSGITNYNPSLKGRVTISRDTSKNQFSLKLSSVTAADTAAYYCARVLARITAMDYWGEGTLVTVSS
VL: DIQMTQSPSSLSASVGDSVTITCQASQDISSYLNWYQQKPGKAPELLIYYGSELHSGVPSRFSGSGSGTDFTFTISSLEAEDAATYYCGQGNRLPYTFGQGTKVEIE
antigen binding (negative control) [3]: not detected regardless of the ATP concentration
